Experimental data: the RNAGym collection of RNA variant scans (doi:10.1073/pnas.2313332121)

B1: TPR t1 (parent)
chain: GACCAAUCUGCCCUCAGAGCUCGAGAACAUCUUCGGAUGCAGAGGAGGCAGGCUUCGGUGGCGCGAUAGCGCCAACGUCCUCAACCUCCAAUGCAUCCCACCACAUGAUGAUGCCUGAAGAGCCUUGGUUUUUUG

Variants of: B1
Assay: polymerase ribozyme fitness, log enrichment relative to wild type (log ratio); higher = more active; in vitro selection for triplet polymerase activity
Method in brief: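 Mutant libraries for each subunit of a heterodimeric triplet polymerase ribozyme were made by PCR and then transcribed. Each library underwent one round of in vitro selection in triplicate: annealing with a biotinylated primer, the partner subunit and triplets, frozen incubation at −7 °C, gel excision of extended constructs, streptavidin-bead capture and RT-PCR. Input and output libraries were Illumina-sequenced, and only genotypes with ≥10 input reads and ≥1 read per output were kept. Fitness is the logarithm, base 2, of genotype enrichment over wild-type enrichment, computed from inverse-variance-weighted replicate averages.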

Row | Variant | polymerase ribozyme fitness (log ratio)
1 | GACCAAUCUGCCCUCAGAGCUCGAGAACAUCUUCGGAUGCAGAGGAGGCUGGCUUCGGUGGCGCGAUAACGCCAACGUCCACAACCUCCAAUGCAUCCCCCCACAUGAUGAUGCCUGAAGAGCCUUGGUUUUUUG | -4.08
2 | GACCAAUCUGCCCUCAGAGCUCGAGAACAUCUUCGGAUGCAGAGGAGGCUGGCUUCGGUGGCGCGAUAGCGCCAACGUCCUCAACCUCCAAUGCAUCCCACCACAUGAUGAUGCCUGAAGAGCAUUGGUUUUUUG | 0.575
3 | GACCAAUCUGCCCUCAGAGCUCGAGAACAUCUUCGGAUGCAGAGGAGGCUGGCUCCGGUGGCGCGAUAGCGCCAACGUCCUCAACCUCCAAGGCAUCCCACCACAUGAUGAUGCCUGGAGAGCCUUGGUUUUUUG | -5.06
4 | GACCAAUCUGCCCUCAGAGCUCGAGAACAUCUUCGGAUGCAGAGGAGGCUGGCUUCGGUGGCGCGAUAGCGCCAACGUCCUCAACCUCCAAUGCAUCCCACCACAUGAUGAUGCCUGAACAGCCUUGGUUUUUUG | 0.234
5 | GACCAAUCUGCCCUCAGAGCUCGAGAACAUCUUCGGAUGCAGAGGAGGCUGGCUUCGGUGGCGCGAUAGCGCCAACGUCCUCAACCUCCAAUGCAUCCCACCACAUGAUGAUCCCUGAAGAGCCUUGGUUUUUUG | -3.07
6 | GACCAAUCUGCCCUCAGAGCUCGAGAACAUCUUCGGAUGCAGAGGAGGCUGGCUUCGGUGCCGCGAUAGCGCCAACGUCCUCAACCUCCAAUGCAUCCCACCACAUGAUGAUUCCUGAAGAGCCUUGGUUUUUUG | -5.56
7 | GACCAAUCUGCCCUCAGAGCUCGAGAACAUCUUCGGAUGCAGAGGAGGCUGGCUUCGGUGGCGCGAUAGCGCCAACGUCCUCAACCUCCAAUGCAUCCCACCAUAUGAUGAUGCCUGAAGAGCCUUGGUUUUUUG | -0.896
8 | GACCAAUCUGCCCUCAGAGCUCGAGAACAUCUUCGGAUGCAGAGGAGGCUGGCUUCUGUGGCGCGAUAGCGCCAACGUCCUCAACCUCCAAUGCAUCCCACCACAUGAUGAUGCCUGAAGAGCCUUGGUUUUUUA | -2.6
9 | GACCAAUCUGCCCUCAGAGCUCGAGAACAUCUUCGGAUGCAGAGGAGGCUGGCUUCGGUGGCGCGAUAGCGCCAACGUCCUCAACAUCCAAUGCAUCCCACCACAUGAUGAUGCCUGUAGAGCCUUGGUUUUUUG | -1.06
10 | GACCAAUCUGCCCUCAGAGCUCGAGAACAUCUUCGGAUGCAGAGGAGGCUAGCUUCGGUGGCGCGAUAGCGCCAACGUCCUCAACCGCCAAUGCAUCCCACCACAAGAUGAUGCCUGAAGAGCCUUGGUUUUUUG | -2.51
11 | GACCAAUCUGCCCUCAGAGCUCGAGAACAUCUUCGGAUGCAGAGGAGGCUGGCUUCGGUGUCGCGAUAGCGCCAACGUCCUCAACCUCCAAUGCAUCCCACCACAUGAUAAUGCCUGAAGAGCCUUAGUUUUUUG | -3.84
12 | GACCAAUCUGCCCUCAGAGCUCGAGAACAUCUUCGGAUGCAGAGGAGGCUGGCUUCGGUGGCGCGAUAGCGCCAACGUCCUCAACCUCCAAUGCAUCCCACCACAUGAUCAUGCCUGAAGAGCCUUGGUUUUUUG | -4.17
13 | GACCAAUCUGCCCUCAGAGCUCGAGAACAUCUUCGGAUGCAGAGGAGGCUGGCUUCGGUGGCCCGAUAGCGCCAACGUCCUCAACCUCCAAUGCAUCCCACCACAUGAUGAUGCCUGAAGAGCCUUGGUUUUUUG | -1.63
14 | GACCAAUCUGCCCUCAGAGCUCGAGAACAUCUUCGGAUGCAGAGGAGGCUGGCUUCGGUGGCGCGAUAGCUCCAACGUCCUCAACCUCCAAUGCAUCCCACCACAUGAUGAUGCCUGAAGAGCCUUGGUUUUUUG | -1.94
15 | GACCAAUCUGCCCUCAGAGCUCGAGAACAUCUUCGGAUGCAGAGGAGGCUAGCUUCGGUGGCGUGAUAGCGCCAACGUCCUAAACCUCCAAUGCAUCCCACCACAUGAUGAUGCCUGAGGAGCCUUGGUUUUUUG | -0.277
16 | GACCAAUCUGCCCUCAGAGCUCGAGAACAUCUUCGGAUGCAGAGGAGGCUGGCUUCGGUGGCGCGAUAGCGCCAACAUCCUCAACCUCCAAUGCAUUCCACCACACGAUGAUGCCUGAAGAGCCUUGGUUUUUUG | -2.11
17 | GACCAAUCUGCCCUCAGAGCUCGAGAACAUCUUCGGAUGCAGAGGAGGCUGGCUUCGGUGGCGCGAUAGCUCCAACGUCCUCAACCUCCAAUGCAUCCCACCACAUGAUGAUGCCUGAAGAGCCUUAGUUUUUUG | -2.67
18 | GACCAAUCUGCCCUCAGAGCUCGAGAACAUCUUCGGAUGCAGAGGAGGCUGGCUUCGGUGGCGCGAUAGCGCCAACGUCCUCAAUCUCCAAUGCAUCCCACCACAUGAUGAUGCCUGAACAGCCUUGGUAUUUUG | -0.66
19 | GACCAAUCUGCCCUCAGAGCUCGAGAACAUCUUCGGAUGCAGAGGAGGCUGGCUUCCGUCGCGCGAUAGCGCCAACGUCCUCAAGCUCCAAUGCAUCCCACCACAUGAUGAUACCUGAAGAGCCUUGGUUUUUUG | -2.27
20 | GACCAAUCUGCCCUCAGAGCUCGAGAACAUCUUCGGAUGCAGAGGAGGCUGGCUUCGGUUGCGCGAUAGCGCCAACGUCCUCAACCUCCAAUGCAUCCCACCACAUGAUGAUGCCUUAAGAGCCUUGGUUUUUUG | -4.36
21 | GACCAAUCUGCCCUCAGAGCUCGAGAACAUCUUCGGAUGCAGAGGAGGCUGGCUUCGGUGGCGCGAUAGCGCCAACGUCCUCAACCUCCAAUGCAUCCCACCACAUGAUGAUGCCUGAAGAGGCUUGGUUGUUUG | 0.128
